The results in this text go back to patent US20110097326A1 (IRM, published 2011).

The target of assay [1] is T1, human TrkC-Fc fusion protein (human, UniProt Q16288 32-429, limits assumed).
T1 construct: not shown: Fc part
The assay is described as follows: ELISA on Trk-hFc fusion proteins, goat anti-human Fab-HRP detection [panel C]. How it is done: (§1) FIG. 9A-D illustrate ELISA assays showing specific binding of NVP-LFD253, NVP-LFD254, NVP-LFC325 and NVP-LFC327 to human TrkB-Fc fusion protein but not to human […] or TrkC-Fc fusion proteins. Purified IgG at 2 μg/ml was evaluated for specificity by examining its interaction with three different Trk family members (TrkA, TrkB and TrkC). Secondary Ab are replicates that were blocked and treated with only the goat-anti-human Fab-HRP detection Ab.
(§2) IgG with human V-segments (e.g., NVP-LFD253, NVP-LFD254, NVP-LFC325, and NVP-LFC327) bind specifically to TrkB but not to TrkA or TrkC. Purified IgG antibodies at 2 μg/ml were evaluated for specificity by examining its interaction with three different Trk family members (TrkA, TrkB and TrkC). Secondary Ab are replicates that were blocked and treated with only the goat-anti-human Fab-HRP detection Ab. As shown in FIG. 9A-D, none of LFD253, LFD254, LFC325 or LFC327 bind to either of these related Trk family receptors.

For assay [2], the target named is T2, TrkA-Fc fusion protein (human, UniProt P04629-2 34-407, limits assumed).
T2 construct: not shown: Fc part
The assay is described as above. As for the experimental part:
as §1, §2

The target of assay [3] is T3, recombinant Fc-TrkB antigen (human) (human, UniProt Q16620 32-430, limits assumed).
T3 construct: Biotinylated for the ForteBio assays; also called Fc-hTrkB; human Fc-TrkB; not shown: Fc part
The assay is described as follows: SPR (Biacore S51), Fc-hTrkB amine-coupled to CM-5 chip, IgG in flow, global 1:1 Langmuir fit. How it is done: Binding studies on the improved antibodies were performed by immobilizing Fc-hTrkB onto a Series S CM-5 Biacore sensor chip (certified) (Biacore #BR-1005-30). Covalent binding of the Fc-fusion protein was done with the ‘Amine Coupling Kit’ (Biacore #BR-1000-50). The Fc-Fusion protein was attached to the EDC-activated dextran surface at 5 μg/ml in 10 mM sodium acetate, pH 4.5 (Biacore #BR-1003-50) at a flow rate of 10 μL/min
A range of concentrations of improved antibodies were flowed over the Fc-TrkB captured chip in PBS plus 100 mM NaCl, 0.005% P20 (Biacore #BR-1000-54). The resulting sensorgrams were analyzed using the Biacore S51 Evaluation Software. Data from all concentrations was fitted globally to a 1:1 Langmuir model.
Although this antibody is bivalent, the binding was treated as a 1:1 event.

The target of assay [4] is T3, recombinant Fc-TrkB antigen (human). The experiment in a line: BLI (ForteBio Octet), biotinylated Fc-TrkB on streptavidin sensors, IgG at 1E-8 M. How it is done: (§3) The binding kinetics of IgGs and Fab fragments were analyzed using a ForteBio Octet biosensor. Recombinant Fc-TrkB antigen was biotinylated using the EZ-link biotinylation kit (Pierce) according to the manufacturer's methods. The antigen was then coupled to streptavidin-coated sensors (ForteBio). Fab binding was monitored in real time using bio-layer interferometry analysis and software provided by the manufacturer. Affinities were calculated from the determined association and dissociation constants.
IgGs with human V-segments were also prepared from transient transfections of CHO cells. IgG preparations were purified and further characterized by kinetic comparison with the reference IgG A10F18.2. Binding kinetics for two of the IgGs with human V-segments were analyzed using a ForteBio Octet system for real-time label-free monitoring of protein-protein interactions.

The target in assay [5] is TrkB on rat intestinal epithelial (RIE)-TrkB cells. The assay is described as follows: cell-based or functional assay.
Assay [6] concerns the target T3, recombinant Fc-TrkB antigen (human). The experiment in a line: BLI (ForteBio Octet), biotinylated Fc-TrkB on streptavidin sensors, Fab at 1E-7 M. As for the experimental part: as §3
(§4) Fabs with human V-segments were isolated from colony-lift binding assays and confirmed by antigen-binding ELISA. The Fab clones showing strong positive signals in antigen-binding ELISA were purified and further characterized by kinetic comparison with the reference Fab TR3-1. Binding kinetics were analyzed using a ForteBio Octet system for real-time label-free monitoring of protein-protein interactions.

Assay [7] shares this target. The assay is described as above. As for the experimental part:
as §3, §4
This is another data set of the same source.

Assay [8] deals with T1, human TrkC-Fc fusion protein. The assay is described as follows: ELISA on Trk-hFc fusion proteins, goat anti-human Fab-HRP detection [panel B]. How it is done:
as §1, §2

Assay [9] concerns the target T2, TrkA-Fc fusion protein. Described as above. How it is done:
as §1, §2

Assay [10] has as its target T1, human TrkC-Fc fusion protein. The experiment in a line: ELISA on Trk-hFc fusion proteins, goat anti-human Fab-HRP detection [panel A]. As for the experimental part: as §1, §2
Assay [11] concerns the target T2, TrkA-Fc fusion protein. Described as above. As for the experimental part:
as §1, §2

Assay [12] addresses T3, recombinant Fc-TrkB antigen (human). The experiment in a line: blocking ELISA on coated Fc-TrkB; blocked molecule: Fab TR3-1 at 50 nM (two replicate series), detected with anti-human kappa-HRP [upper panel].
The target is the same in assay [13]. The experiment in a line: blocking ELISA on coated Fc-TrkB; blocked molecule: Fab TR151-1 at 50 nM, detected with anti-human kappa-HRP [upper panel].

“And” between values parts separate entries of the source, which are not always exact repeats. Identical values can stand only once.

B1: NVP-LFC325 (antibody, human IgG1, V domains shown)
VH: QVQLVQSGAEVKKPGASVKVSCKASGYTFTAYDMHWVRQAPGQGLEWMGWIDPNSGGTRYAQKFQGRVTMTRDTSISTAYMELSRLTSDDTAVYYCTGVTTWFAYWGQGTLVTVSS
VL: DIVMTQTPLSLPVTLGQPASISCRSSQSLLHSNGNTYLNWYQQTPGQPPRLLIYKISNRFSGVPDRFSGSGAGTDFTLKISRVEAEDVGVYYCMQGTHVPYTFGQGKLEIK
notes: IgG with human IgG1 constant region and human kappa constant region, from transiently transfected CHO cells; also called TR127 Vh & TR119 Vk
As to B1, in [1], the binding result is “no binding (tested: 2 ug/ml)”. Further, the binding result in the assay with TrkA-Fc fusion protein [2] is “no binding (tested: 2 ug/ml)”. In assay [3], the Kd was 0.114 nM, the off-rate constant (koff) is 4.85e-05 s⁻¹ and the association rate constant (kon) is roughly 425000 M⁻¹ s⁻¹. Moreover, in assay [4], the Kd was 0.0335 nM, the koff is 1.52e-05 s⁻¹ and the association rate constant (kon) was 453000 M⁻¹ s⁻¹. In [5], the “EC50, anoikis assay on RIE-TrkB cells” value was 41.8 ng/ml and 280 pM.

B2: Fab TR135-8 (Fab, V domains shown)
VH: QVQLVQSGAEVKKPGASVKVSCKASGYTFTAYDMHWVRQAPGQGLEWMGWIDPNSGGTRYAQKFQGRVTMTRDTSISTAYMELSRLTSDDTAVYYCTGVTTWFAYWGQGTLVTVSS
VL: MDVVMTQSPLSLPVTLGQPASISCRSSQSLVHSNGNTYLNWYQQKPGQPPRLLIYKISNRFSGVPDRFSGSGAGTDFTLKISRVEAEDVGVYYCMQGTHEPYTFGQGKLEIK
notes: Fab with human V-segments, expressed in E. coli; detected with anti-human kappa
Regarding B2, in [6], the Kd was found to be 31.9 nM, the koff is 0.00458 s⁻¹ and the on-rate constant (kon) was determined as 144000 M⁻¹ s⁻¹. In assay [7], the Kd is 32.3 nM, the koff turned out to be 0.00439 s⁻¹ and the kon stood at 136000 M⁻¹ s⁻¹.

B3: NVP-LFD254 (antibody, human IgG1, V domains shown)
VH: QVQLVQSGAEVKKPGASVKVSCKASGYTFTAYDMHWVRQAPGQGLEWMGWIDPRSGDTSYKQKFQGRVTMTRDTSISTAYMELHRLRSDDTAVYYCTGVTTWFAYWGQGTLVTVSS
VL: DIVMTQTPLSLPVTLGQPASISCRSSQSLLHSNGNTYLNWYQQTPGQPPRLLIYKISNRFSGVPDRFSGSGAGTDFTLKISRVEAEDVGVYYCMQGTHVPYTFGQGKLEIK
notes: IgG with human IgG1 constant region and human kappa constant region, from transiently transfected CHO cells; also called TR143 Vh & TR119 Vk
As for B3, in assay [3], the equilibrium dissociation constant (Kd) came to 0.117 nM, the koff stood at 1.94e-05 s⁻¹ and the kon was found to be 166000 M⁻¹ s⁻¹. In addition, the “EC50, anoikis assay on RIE-TrkB cells” value in assay [5] is 24 ng/ml and 160 pM. Besides, in [8], the binding result is given as “no binding (tested: 2 ug/ml)”. The binding result in the assay with TrkA-Fc fusion protein [9] is “no binding (tested: 2 ug/ml)”.

B4: Fab TR144-1 (Fab, V domains shown)
VH: QVQLVQSGAEVKKPGASVKVSCKASGYTFTAYDMHWVRQAPGQGLEWMGWIDPRSGDTSYKQKFQGRVTMTRDTSISTAYMELHRLRSDDTAVYYCTGVTTWFAYWGQGTLVTVSS
VL: MDVVMTQSPLSLPVTLGQPASISCRSSQSLVHSNGNTYLNWYQQKPGQPPRLLIYKISNRFSGVPDRFSGSGAGTDFTLKISRVEAEDVGVYYCMQGTHEPYTFGQGKLEIK
notes: Fab with human V-segments, expressed in E. coli
For B4, in assay [6], the Kd is 29.7 nM, the koff was 0.00366 s⁻¹ and the kon was 123000 M⁻¹ s⁻¹. In [7], the dissociation constant (Kd) came out at 31.1 nM, the koff worked out at 0.00392 s⁻¹ and the kon was 126000 M⁻¹ s⁻¹.

B5: NVP-LFD253 (antibody, human IgG1, V domains shown)
VH: QVQLVQSGAEVKKPGASVKVSCKASGYTFTAYDMHWVRQAPGQGLEWMGWIDPNSGGTRYAQKFQGRVTMTRDTSISTAYMELSRLTSDDTAVYYCTGVTTWFAYWGQGTLVTVSS
VL: DIVMTQTPLSLPVTLGQPASISCRSSQSLVHSNGNTYLSWLQQRPGQPPRLLIYKISNRFSGVPDRFSGSGAGTDFTLKISRVEAEDVGVYYCMQGTHEPYTFGQGKLEIK
notes: IgG with human IgG1 constant region and human kappa constant region, from transiently transfected CHO cells; also called TR127 Vh & TR137 Vk
In the case of B5, in assay [10], the binding result is reported as “no binding (tested: 2 ug/ml)”. In the assay with TrkA-Fc fusion protein [11], the binding result is recorded as “no binding (tested: 2 ug/ml)”. In assay [3], the dissociation constant (Kd) amounted to 0.165 nM, the koff is 3.25e-05 s⁻¹ and the on-rate (kon) came out at 197000 M⁻¹ s⁻¹. Further, in assay [5], the “EC50, anoikis assay on RIE-TrkB cells” value was 4.1 ng/ml and 28 pM.

B6: Fab TR134-4 (Fab, V domains shown)
VH: QVQLVQSGAEVKKPGASVKVSCKASGYTFTAYDMHWVRQAPGQGLEWMGWIDPNSGGTRYAQKFQGRVTMTRDTSISTAYMELSRLTSDDTAVYYCTGVTTWFAYWGQGTLVTVSS
VL: MDVVMTQSPLSLPVTLGQPASISCRSSQSLLHSNGNTYLNWYQQTPGQPPRLLIYKISNRFSGVPDRFSGSGAGTDFTLKISRVEAEDVGVYYCMQGTHEPYTFGQGKLEIK
notes: as for B4
Consider B6, for which, in assay [6], the Kd was 35.6 nM, the off-rate (koff) was 0.00422 s⁻¹ and the kon was 118000 M⁻¹ s⁻¹.

B7: Fab TR139-2 (Fab, V domains shown)
VH: QVQLVQSGAEVKKPGASVKVSCKASGYTFTAYDMHWVRQAPGQGLEWMGWIDPNSGGTRYAQKFQGRVTMTRDTSISTAYMELSRLTSDDTAVYYCTGVTTWFAYWGQGTLVTVSS
VL: MDVVMTQSPLSLPVTLGQPASISCRSSQSLVHSNGNTYLSWLQQRPGQPPRLLIYKISNRFSGVPDRFSGSGAGTDFTLKISRVEAEDVGVYYCMQGTHEPYTFGQGKLEIK
notes: as for B4
For B7, in assay [6], the equilibrium dissociation constant (Kd) was determined as 14.2 nM, the koff came to 0.00334 s⁻¹ and the kon turned out to be 235000 M⁻¹ s⁻¹. For the same molecule, in assay [7], the Kd is 15.1 nM, the off-rate constant (koff) was determined as 0.00317 s⁻¹ and the kon is 211000 M⁻¹ s⁻¹.

B8: Fab TR151-1 (Fab, V domains shown)
VH: QVQLVQSGAEVKKPGASVKVSCKASGYTFTAYDMHWVRQAPGQGLEWMGWIDPNSGGTRYAQKFQGRVTMTRDTSISTAYMELSRLTSDDTAVYYCAGVTSWFAYWGQGTLVTVSS
VL: MDVVMTQSPLSLPVTLGQPASISCRSSQSLVHSNGNTYLSWLQQRPGQPPRLLIYKISNRFSGVPDRFSGSGAGTDFTLKISRVEAEDVGVYYCMQGTHEPYTFGQGKLEIK
notes: as for B4
Take B8: in assay [7], the dissociation constant (Kd) is 18.6 nM, the koff is 0.00395 s⁻¹ and the kon was 213000 M⁻¹ s⁻¹.

B9: A10F18.2 IgG (antibody, V domains shown)
VH: QVQLQQSGAELVRPGASVTLSCKASGYTFTDYEMHWVKQTPVHGLEWIGTIDPETAGTAYNQKFKGKAILTAGKSSSTAYMELRSLTSEDSAVYYCTGVTTWFAYWGQGTLVTVSA
VL: DVVMTQTPLSLPVSLGDQASISCRSSQSLVHSNGNTYLHWYLQKPGQSPNLLIYKVSNRFSGVPDRFSGSGSGTDFTLKISRVEAEDLGVYFCSQGTHVPYTFGGGTKLEIKR
Consider B9, for which the “IC50 (read off the curve)” value in assay [12] was roughly 6 nM. Besides, in assay [4], the Kd is 0.0379 nM and 0.0477 nM; the off-rate constant (koff) was 1.44e-05 s⁻¹ and 1.89e-05 s⁻¹; the kon is 379000 M⁻¹ s⁻¹ and 396000 M⁻¹ s⁻¹. The “IC50 (read off the curve)” value in assay [13] is roughly 5 nM.
